We go through 31 molecules from US20210380703A1 (RIGEL PHARMACEUTICALS, published 2021).

The labels stand for the following.
B1: 369_H02 (antibody, V domains shown)
VH: EVQLLESGGGLVQPGGSLRLSCAASGFTFDDYSMNWVRQAPGKGLEWVSNINYNGGYKSYADSVKGRFTISRDNSKNTLYLQMNSLRAEDTAVYYCARGATWHDTHLDYWGQGTLVTVSS
VL: DIQMTQSPSSLSASVGDRVTITCRASQSIISYLNWYQQKPGKAPKLLIYAATSRASGVPSRFSGSGSGTDFTLTISSLQPEDFATYYCQQSYDSPLTFGGGTKVEIK
notes: VH/VL only
B2: 371_G01 (antibody, V domains shown)
VH: B1 VH with D30S, K58T
VL: B1 VL with I30L, S31T, R54L, S94L
notes: VH/VL only
B3: 371_F03 (antibody, V domains shown)
VH: B1 VH with D30S, D31S, N50G, K58T
VL: B1 VL with S31T, R54L, A55H, S94N
notes: VH/VL only
B4: 371_B01 (antibody, V domains shown)
VH: B1 VH with D31S, G55S, K58T, S59G
VL: B1 VL with I30L, L33V, R54L, S94L
notes: VH/VL only
B5: 370_E04 (antibody, V domains shown)
VH: B1 VH with D30S, D31S, S49A, S59G
VL: B1 VL with I30L, S31T, A51V, R54L, A55H, D93E, S94T
notes: VH/VL only
B6: 370_E05 (antibody, V domains shown)
VH: B1 VH with D30S, D31S, S33G, S59G
VL: B1 VL with I30S, S31T, L47V, A51V, D93N
notes: VH/VL only
B7: 370_D03 (antibody, V domains shown)
VH: B1 VH with D30S, D31S, S49A, N50S, K58T
VL: B1 VL with S31T, S94L
notes: VH/VL only
B8: 372_E08 (antibody, V domains shown)
VH: B1 VH with D30S, K58T
VL: B1 VL with S31T, D93N, S94L
notes: VH/VL only
B9: 371_C07 (antibody, V domains shown)
VH: B1 VH with D31S, S33G, K58T, S59G, H106A
VL: B1 VL with I30L, R54L, S94T
notes: VH/VL only
B10: 371_E09 (antibody, V domains shown)
VH: B1 VH with D30S, N50G, G55S, K58T
VL: B1 VL with I30L, S31T, D93N
notes: VH/VL only
B11: 369_H08 (antibody, V domains shown)
VH: B1 VH with D30S, D31S, S49A, N50G, G55S
VL: B1 VL with I30L, L33V, L47V, R54L, D93E
notes: VH/VL only
B12: 370_H04 (antibody, V domains shown)
VH: B1 VH with D30S, D31S, K58T, S59G
VL: B1 VL with I30L, L33V, S94L
notes: VH/VL only
B13: 370_B08 (antibody, V domains shown)
VH: B1 VH with D30S, S49A, K58T, S59G
VL: B1 VL with I30L, T52S, R54L, A55Q
notes: VH/VL only
B14: 370_F02 (antibody, V domains shown)
VH: B1 VH with D31S, S33G, S49A, K58T, S59G
VL: B1 VL with I30L, A51V, A55H
notes: VH/VL only
B15: 370_F01 (antibody, V domains shown)
VH: B1 VH with D30S, D31S, S33G, K58T
VL: B1 VL with I30V
notes: VH/VL only
B16: 370_C07 (antibody, V domains shown)
VH: B1 VH with D30S, D31S, S49A
VL: B1 VL with I30L, A55H, D93E
notes: VH/VL only
B17: 371_E12 (antibody, V domains shown)
VH: B1 VH with D31S, N50G, G55S
VL: B1 VL with I30L, R54L, S94T
notes: VH/VL only
B18: 370_C10 (antibody, V domains shown)
VH: B1 VH with D31S, G55S, S59G
VL: B1 VL with I30V, L33V, A51T, D93S
notes: VH/VL only
B19: 371_E08 (antibody, V domains shown)
VH: B1 VH with D30S, D31S, G55S
VL: B1 VL with I30V, L33V, L47V, A55H, S94L
notes: VH/VL only
B20: 371_H11 (antibody, V domains shown)
VH: B1 VH with D30S, D31S, N50G, S59G
VL: B1 VL with I30L, S31T, A51T, A55H, D93E
notes: VH/VL only
B21: 370_F12 (antibody, V domains shown)
VH: B1 VH with D30S, S49A, K58T, S59G
VL: B1 VL with I30L, T52S, R54L, A55Q
notes: VH/VL only
B22: 371_E05 (antibody, V domains shown)
VH: B1 VH with D30S, D31S, S49A, N50G, K58T
VL: B1 VL with L47V, D93S
notes: VH/VL only
B23: 369_H12 (antibody, V domains shown)
VH: B1 VH with D30S, D31S, S49A, N50G
VL: B1 VL with I30V, S31T, L33V, L47V
notes: VH/VL only
B24: 370_C06 (antibody, V domains shown)
VH: B1 VH with D30S, D31S, S49A
VL: B1 VL with I30L, S31T, L33V, T52S, R54L, A55Q, D93S, S94T
notes: VH/VL only
B25: 371_F09 (antibody, V domains shown)
VH: B1 VH with D30S, D31S, S49A, N50G, K58T
VL: B1 VL with I30L, S31T, S94N
notes: VH/VL only
B26: 372_F02 (antibody, V domains shown)
VH: B1 VH with D30S, D31S, S33G, N35H, S49A, N50S, K58T
VL: B1 VL with I30L, S31T, L47V, A55H, S94L
notes: VH/VL only
B27: 370_G08 (antibody, V domains shown)
VH: B1 VH with D30S, S49A, N50G, K58T, S59G
VL: B1 VL with I30L, S31T, L47V, D93E
notes: VH/VL only
B28: 372_B09 (antibody, V domains shown)
VH: B1 VH with D30S, D31S, N50S, G55S, K58T
VL: B1 VL with I30L, S31T, D93E, S94T
notes: VH/VL only
B29: 371_C06 (antibody, V domains shown)
VH: B1 VH with D30S, D31S, N50S, K58T
VL: B1 VL with I30S, A51V, S94L
notes: VH/VL only
B30: 370_D09 (antibody, V domains shown)
VH: B1 VH with D30S, N50G, G55S, K58T
VL: B1 VL with I30V, S31T, L47V, S94T
notes: VH/VL only
B31: 370_H06 (antibody, V domains shown)
VH: B1 VH with S49A, K58T, S59G
VL: B1 VL with I30L, S31T, D93E, S94T
notes: VH/VL only

Substitutions are numbered along the chain they refer to.
Further: test concentration or dose not given here.

Chain of Mouse ACVR2A (P27038 20-135 limits assumed): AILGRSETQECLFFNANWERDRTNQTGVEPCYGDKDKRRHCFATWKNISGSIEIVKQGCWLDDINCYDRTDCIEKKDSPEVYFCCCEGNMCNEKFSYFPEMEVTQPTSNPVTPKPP

The target of the first assay is T1, Goat anti-Human Kappa.
T1 construct: Positive control; also called biotinylated goat anti-human kappa light chain
Put plainly: ELISA; positive control. In outline:
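ELISA measured binding of ACVR2A-specific monoclonal antibodies to human and mouse ACVR2A. Biotinylated goat anti-human kappa light chain served as positive control and human Fc as negative control.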
B1 came in with an optical density of 3.57 OD.
On to B2, for which the optical density amounted to 1.79 OD.
Take B3: the optical density amounted to 1.82 OD.
In the case of B4, the optical density is 3.58 OD.
Still for that read-out and setting: as for B5, the figure is 3.4 OD.
Molecule B6 yielded an optical density of 3.52 OD.
With B7, the optical density is 3.58 OD.
As for B8, the optical density was determined as 3.51 OD.
With B9, the optical density was 3.36 OD.
B10 showed an optical density of 3.15 OD.
The molecule B11 registered an optical density of 3.56 OD.
As for B12, the optical density was 3.62 OD.
The same measure, in the same setting: under B13 stands 3.35 OD; under B14, 3.63 OD; under B15, 3.67 OD.
Same read-out and setting: under B16 stands 3.3 OD; under B17, 3.62 OD; under B18, 3.35 OD.
Same read-out and setting: under B19 stands 2.64 OD; under B20, 3.6 OD; under B21, 3.64 OD.
B22 displayed an optical density of 3.45 OD.
In the case of B23, the optical density turned out to be 3.65 OD.
B24 had an optical density of 3.55 OD.
As to B25, the optical density came to 3.6 OD.
Same read-out and setting: under B26 stands 3.69 OD; under B27, 3.56 OD; under B28, 3.5 OD.
On the same count and under the same terms, as for B29, the figure is 3.44 OD.
B30 had an optical density of 3.48 OD.
As for B31, the optical density is 3.51 OD.

A further assay addresses Mouse ACVR2A (mouse, UniProt P27038 20-135, limits assumed). Put plainly: ELISA. In outline: (§1)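 mAb binding by ELISA; antigens: hu ACVR2A, mu ACVR2A; pos ctrl biotinylated goat anti-hu kappa LC; neg ctrl hu Fc.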
On the technique in general: ELISA stands for enzyme-linked immunosorbent assay.
In the case of B1, the optical density is 3.29 OD.
B2 displayed an optical density of 2.24 OD.
For B3, the optical density was determined as 1.3 OD.
The molecule B4 gave an optical density of 3.27 OD.
As for B5, the optical density stood at 2.72 OD.
Regarding B6, the optical density was 2.77 OD.
B7 had an optical density of 3.25 OD.
Molecule B8 gave an optical density of 2.82 OD.
The molecule B9 gave an optical density of 1.45 OD.
Molecule B10 registered an optical density of 2.28 OD.
Same read-out and setting: under B11 stands 3.23 OD; under B12, 3.56 OD; under B13, 3.25 OD.
Turning to B14, the optical density worked out at 2.89 OD.
B15: the optical density was determined as 3.14 OD.
In turn, B16 gave an optical density of 3.37 OD.
On to B17, for which the optical density amounted to 2.99 OD.
Regarding B18, the optical density was found to be 1.38 OD.
Take B19: the optical density amounted to 2.27 OD.
B20 registered an optical density of 3.12 OD.
B21 had an optical density of 3.57 OD.
For the molecule B22, the optical density was determined as 3.18 OD.
B23: the optical density is 3.42 OD.
B24 yielded an optical density of 3.41 OD.
Molecule B25 showed an optical density of 3.57 OD.
Turning to B26, the optical density was found to be 3.09 OD.
Same read-out and setting: as for B27, the figure is 3.33 OD.
In turn, B28 registered an optical density of 3.01 OD.
Regarding B29, the optical density was 3.01 OD.
B30 returned an optical density of 2.53 OD.
With B31, the optical density came out at 3.39 OD.

In a further assay the target is T2, Human ACVR2A (human, UniProt P27037 20-135, limits assumed).
T2 construct: also called activin receptor, type II A
T2 sequence (P27037 20-135 limits assumed): as the sequence (P27038 20-135 limits assumed) above, with R20K, I73V counted along it
Kind of assay: ELISA. In outline:
as §1
With B1, the optical density came to 3.09 OD.
With B2, the optical density is 2.01 OD.
The molecule B3 showed an optical density of 1.19 OD.
B4 displayed an optical density of 3.26 OD.
For the molecule B5, the optical density stood at 2.57 OD.
The molecule B6 yielded an optical density of 2.58 OD.
On to B7, for which the optical density amounted to 3.13 OD.
In turn, B8 gave an optical density of 2.56 OD.
Still for that read-out and setting: as for B9, the figure is 1.39 OD; as for B10, 2.08 OD.
Take B11: the optical density was determined as 3.16 OD.
Still for that read-out and setting: as for B12, the figure is 3.48 OD; as for B13, 3.13 OD; as for B14, 2.68 OD.
For the molecule B15, the optical density worked out at 3 OD.
Same read-out and setting: as for B16, the figure is 3.35 OD.
B17 yielded an optical density of 3.09 OD.
On to B18, for which the optical density came out at 1.3 OD.
As for B19, the optical density came to 2.11 OD.
B20 showed an optical density of 2.89 OD.
On to B21, for which the optical density turned out to be 3.55 OD.
On the same count and under the same terms, as for B22, the figure is 2.99 OD; as for B23, 3.46 OD; as for B24, 3.14 OD.
On the same count and under the same terms, as for B25, the figure is 3.37 OD.
Take B26: the optical density was determined as 3.01 OD.
Turning to B27, the optical density amounted to 3.21 OD.
B28 came in with an optical density of 3.11 OD.
For B29, the optical density was found to be 2.49 OD.
As for B30, the optical density came out at 2.92 OD.
B31 returned an optical density of 3.22 OD.
